Read-outs that look alike come from different tables or passages of the source.
Columns and labels:
[1] = test system: propionyl-CoA synthetase (Pcs)
purified protein [2] = substrate: CC(C)(COP(=O)(O)OP(=O)(O)OC[C@H]1O[C@@H](n2cnc3c(N)ncnc32)[C@H](O)[C@@H]1OP(=O)(O)O)[C@@H](O)C(=O)NCCC(=O)NCCSC(=O)CC(=O)O; assay: purified protein; conditions: NADPH co-substrate; full-length Mcr assumed (McrC also made)
purified protein [3] = substrate: CC(C)(COP(=O)(O)OP(=O)(O)OC[C@H]1O[C@@H](n2cnc3c(N)ncnc32)[C@H](O)[C@@H]1OP(=O)(O)O)[C@@H](O)C(=O)NCCC(=O)NCCSC(=O)CCC(=O)O; assay: purified protein
purified protein [4] = substrate: NC(=O)C1=CN([C@@H]2O[C@H](COP(=O)(O)OP(=O)(O)OC[C@H]3O[C@@H](n4cnc5c(N)ncnc54)[C@H](OP(=O)(O)O)[C@@H]3O)[C@@H](O)[C@H]2O)C=CC1; assay: purified protein; conditions: acrylyl-CoA co-substrate; varied: cofactor
purified protein [5] = substrate: C=CC(=O)SCCNC(=O)CCNC(=O)[C@H](O)C(C)(C)COP(=O)(O)OP(=O)(O)OC[C@H]1O[C@@H](n2cnc3c(N)ncnc32)[C@H](O)[C@@H]1OP(=O)(O)O; assay: purified protein; conditions: NADPH co-substrate
purified protein [6] = substrate: CC(C)(COP(=O)(O)OP(=O)(O)OC[C@H]1O[C@@H](n2cnc3c(N)ncnc32)[C@H](O)[C@@H]1OP(=O)(O)O)[C@@H](O)C(=O)NCCC(=O)NCCSC(=O)CCN; assay: purified protein; conditions: NADPH, NaHCO3, excess Ccr
purified protein [7] = substrate: CC(C)(COP(=O)(O)OP(=O)(O)OC[C@H]1O[C@@H](n2cnc3c(N)ncnc32)[C@H](O)[C@@H]1OP(=O)(O)O)[C@@H](O)C(=O)NCCC(=O)NCCSC(=O)/C=C/C(=O)O; assay: purified protein
purified protein [8] = substrate: O=C(O)C[C@H](O)C(=O)O; assay: purified protein; conditions: succinyl-CoA co-substrate
[9] = substrate: N[C@@H](CCC(=O)O)C(=O)O; assay: malonic semialdehyde made by McrC; type: biochemical, Escherichia coli; conditions: malonic semialdehyde co-substrate, NH4Cl
[10] = substrate: O=CCC(=O)O; assay: malonic semialdehyde made by McrC; type: biochemical, Escherichia coli; conditions: L-glutamate co-substrate, NH4Cl

`Nc1ncnc2c1ncn2[C@@H]1O[C@H](COP(=O)(O)OP(=O)(O)OP(=O)(O)O)[C@@H](O)[C@H]1O` [ATP] was tested. Which Km ([1]; read-out: app. Km, 3-hydroxypropionate, NADPH co-substrates) did it give?
Its Km is 10 µM.

Which Km ([1]; read-out: app. Km, ATP, NADPH co-substrates) does the source give for `O=C(O)CCO` [3-hydroxypropionate] here?
The Km was 85 µM.

B1: Malonyl-CoA reductase (Mcr) (Chloroflexus aurantiacus J-10-fl) (protein)
chain: MSGTGRLAGKIALITGGAGNIGSELTRRFLAEGATVIISGRNRAKLTALAERMQAEAGVPAKRIDLEVMDGSDPVAVRAGIEAIVARHGQIDILVNNAGSAGAQRRLAEIPLTEAELGPGAEETLHASIANLLGMGWHLMRIAAPHMPVGSAVINVSTIFSRAEYYGRIPYVTPKAALNALSQLAARELGARGIRVNTIFPGPIESDRIRTVFQRMDQLKGRPEGDTAHHFLNTMRLCRANDQGALERRFPSVGDVADAAVFLASAESAALSGETIEVTHGMELPACSETSLLARTDLRTIDASGRTTLICAGDQIEEVMALTGMLRTCGSEVIIGFRSAAALAQFEQAVNESRRLAGADFTPPIALPLDPRDPATIDAVFDWAGENTGGIHAAVILPATSHEPAPCVIEVDDERVLNFLADEITGTIVIASRLARYWQSQRLTPGARARGPRVIFLSNGADQNGNVYGRIQSAAIGQLIRVWRHEAELDYQRASAAGDHVLPPVWANQIVRFANRSLEGLEFACAWTAQLLHSQRHINEITLNIPANISATTGARSASVGWAESLIGLHLGKVALITGGSAGIGGQIGRLLALSGARVMLAARDRHKLEQMQAMIQSELAEVGYTDVEDRVHIAPGCDVSSEAQLADLVERTLSAFGTVDYLINNAGIAGVEEMVIDMPVEGWRHTLFANLISNYSLMRKLAPLMKKQGSGYILNVSSYFGGEKDAAIPYPNRADYAVSKAGQRAMAEVFARFLGPEIQINAIAPGPVEGDRLRGTGERPGLFARRARLILENKRLNELHAALIAAARTDERSMHELVELLLPNDVAALEQNPAAPTALRELARRFRSEGDPAASSSSALLNRSIAAKLLARLHNGGYVLPADIFANLPNPPDPFFTRAQIDREARKVRDGIMGMLYLQRMPTEFDVAMATVYYLADRNVSGETFHPSGGLRYERTPTGGELFGLPSPERLAELVGSTVYLIGEHLTEHLNLLARAYLERYGARQVVMIVETETGAETMRRLLHDHVEAGRLMTIVAGDQIEAAIDQAITRYGRPGPVVCTPFRPLPTVPLVGRKDSDWSTVLSEAEFAELCEHQLTHHFRVARKIALSDGASLALVTPETTATSTTEQFALANFIKTTLHAFTATIGVESERTAQRILINQVDLTRRARAEEPRDPHERQQELERFIEAVLLVTAPLPPEADTRYAGRIHRGRAITV
With B1 as the molecule, how does the Km (purified protein [2]) read?
The Km was 1.3 µM.

B2: (2S)-methylsuccinyl-CoA dehydrogenase (PmMcd) (Pseudomonas migulae) (protein)
chain: MLPITAADDVQGLLLQLRGLLEQAISALASRCTKGRQLDAELLDLMQVPTFELAWASAELLAAERSLQAIDAGTSSVDRRLILVFAVEAITLVHSRLEAIYAELDLADGTLHAIAADQKLRALRRSVLSSTALHDSARLMVERPEQIGQVAMGDELSMIEDQFRRFAADTVAPLAEHIHREDLIIPDSLLAALRDMGVFGLSIPERYGGSAPDDQEDPLTMIVVTEALSQASLAAAGSLITRPEILSRALLSGGTESQKQHWLARLAVGDPLCAIAITEPDYGSDVAGLTLRGTPCEGGWRLNGAKTWCTFAGKAGVLMVVTRTNPDKSLGHRGLSLLLAEKPSYDGHEFDFRQPGGGSLTGRAIPTIGYRGMHSFDLSFEDFFVPDGNVIGEAQGLGKGFYHTMAGMTGGRMQTAGRASGVMRAALLAGLRYATERKVFGSPLLDYPLTGAKLTKMAARYVASRYLTYSVGRMLAQGEGRMEASLVKLFACRSAELVTRESLQIHGGMGYAEEVAVSRYFVDARVLSIFEGAEETLALKVIGRSLLEAALKAEAA
How did the Km (purified protein [3]; ferrocenium electron acceptor) turn out when B2 was run?
Its Km is 78 µM.

B3: Ccr (Methylorubrum extorquens AM1) (protein)
chain: MAASAAPAWTGQTAEAKDLYELGEIPPLGHVPAKMYAWAIRRERHGPPEQSHQLEVLPVWEIGDDEVLVYVMAAGVNYNGVWAGLGEPISPFDVHKGEYHIAGSDASGIVWKVGAKVKRWKVGDEVIVHCNQDDGDDEECNGGDPMFSPTQRIWGYETGDGSFAQFCRVQSRQLMARPKHLTWEEAACYTLTLATAYRMLFGHAPHTVRPGQNVLIWGASGGLGVFGVQLCAASGANAIAVISDESKRDYVMSLGAKGVINRKDFDCWGQLPTVNSPEYNTWLKEARKFGKAIWDITGKGNDVDIVFEHPGEATFPVSTLVAKRGGMIVFCAGTTGFNITFDARYVWMRQKRIQGSHFAHLKQASAANQFVMDRRVDPCMSEVFPWDKIPAAHTKMWKNQHPPGNMAVLVNSTRAGLRTVEDVIEAGPLKAM
How did the Km (purified protein [4]) turn out when B3 was run?
The Km was 210 µM.

What about the Km (purified protein [5]) of the same molecule?
Its Km is 780 µM.

B4: β-alanyl-CoA:ammonia lyase (βCal) (Allostigmatella aurantiaca DW4/3-1) (protein)
chain: MSTKAIIRLRMSSHDAHYGGNLVDGARMLGLFGDVATELCIRHDGDEGLFRAYDSVEFLAPVYAGDFIEAEGEILSEGNTSRKMRFEARKVIRPRTDVNDSAADLLSEPVVVCRATGTCVVPKDKQRIPR
For B4, which Km (purified protein [6]) is on record?
Its Km is 70 µM.

B5: mesaconyl-CoA hydratase (Mch) (Cereibacter sphaeroides 2.4.1) (protein)
chain: MKTNAGRFFEDYRLGETIAHAVPRTVSGGERALYHALYPARHALSSSDEFARACGLPAAPVDELMAFHLVFGKTVPDISLNAVANLGYAEGRWLKPVFPGDTLRAESTVIGLKENSNGASGVVWVRTRGLNQQGEAVLSYVRWVMVRKRDTAAPAPAPTVPELAGSVAASDLVIPEGLSFTDYDLTLAGEPHRWGDYAVGEKIDHVDGVTVEESEHMLATRLWQNTAKVHFDATNRPDGRRLIYGGHVISLARTLSFNGLANAQMIVALNAGAHANPCFAGDTVRAWSEVLDKAETADPGVGALRLRLVAMKHGTEPFVTRSEDGKYLPGVLLDLDYWALVPR
With B5 as the molecule, how does the Km (purified protein [7]) read?
Its Km is 280 µM.

B6: succinyl-CoA:L-malate CoA transferase (Smt) (Chloroflexus aurantiacus) (protein)
chain 1: MPPTGEEPSGHAESKPPASDPMSTPGTGQEQLPLSGIRVIDVGNFLAGPYAASILGEFGAEVLKIEHPLGGDPMRRFGTATARHDATLAWLSEARNRKSVTIDLRQQEGVALFLKLVAKSDILIENFRPGTMEEWGLSWPVLQATNPGLIMLRVSGYGQTGPYRRRSGFAHIAHAFSGLSYLAGFPGETPVLPGTAPLGDYIASLFGAIGILIALRHKEQTGRGQLIDVGIYEAVFRILDEIAPAYGLFGKIREREGAGSFIAVPHGHFRSKDGKWVAIACTTDKMFERLAEAMERPELASPELYGDQRKRLAARDIVNQITIEWVGSLTRDEVMRRCLEKEVPVGPLNSIADMFNDEHFLARGNFACIEAEGIGEVVVPNVIPRLSETPGRVTNLGPPLGNATYEVLRELLDISAEEIKRLRSRKII
chain 2: MDGTTTTLPLAGIRVIDAATVIAAPFCATLLGEFGADVLKVEHPIGGDALRRFGTPTARGDTLTWLSESRNKRSVTLNLQHPEGARVFKELIAHSDVLCENFRPGTLEKWGLGWDVLSKINPRLIMLRVTGYGQTGPYRDRPGFARIAHAVGGIAYLAGMPKGTPVTPGSTTLADYMTGLYGCIGVLLALRHREQTGRGQYIDAALYESVFRCSDELVPAYGMYRKVRERHGSHYNEFACPHGHFQTKDGKWVAISCATDKLFARLANAMGRPELASSSVYGDQKVRLAHASDVNEIVRDWCSSLTRAEVLERCYATATPAAPLNDIADFFGDRHVHARRNLVAIDAEDLGETLIMPNVVPKLSETPGSIRSLGPKLGEHTEEVLKEILGMCDEQINDLRSKRVI
Which Km (purified protein [8]) does the source give for B6 here?
Its Km is 910 µM.

And the Km (purified protein [3]; malate co-substrate)?
Its Km is 960 µM.

B7: 4-aminobutyrate-2-oxoglutarate transaminase (GabT) (Escherichia coli K-12) (protein)
chain: MNSNKELMQRRSQAIPRGVGQIHPIFADRAENCRVWDVEGREYLDFAGGIAVLNTGHLHPKVVAAVEAQLKKLSHTCFQVLAYEPYLELCEIMNQKVPGDFAKKTLLVTTGSEAVENAVKIARAATKRSGTIAFSGAYHGRTHYTLALTGKVNPYSAGMGLMPGHVYRALYPCPLHGISEDDAIASIHRIFKNDAAPEDIAAIVIEPVQGEGGFYASSPAFMQRLRALCDEHGIMLIADEVQSGAGRTGTLFAMEQMGVAPDLTTFAKSIAGGFPLAGVTGRAEVMDAVAPGGLGGTYAGNPIACVAALEVLKVFEQENLLQKANDLGQKLKDGLLAIAEKHPEIGDVRGLGAMIAIELFEDGDHNKPDAKLTAEIVARARDKGLILLSCGPYYNVLRILVPLTIEDAQIRQGLEIISQCFDEAKQ
For B7, which Km [9] is on record?
The Km was 7 µM.

And the Km [10]?
Its Km is 98 µM.
